From paper PMC3042717 come the findings set out here.

This experiment has as its target GST-VP16 (aa 452-490) (herpes simplex virus) (UniProt P06492). Kind of experiment: pull-down.
UniProt P06492, sequence (P06492 452-490): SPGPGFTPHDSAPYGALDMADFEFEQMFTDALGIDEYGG

In the case of “wild-type p300 over-expressed in A293 cells, Q09472 1-2414”, the fold more efficient pull-down than of p300ΔC worked out at 5 fold.
